Experimental data: paper PMC2873925

Legend:
[1] = molecular target: Neisseria meningitidis Opc protein (outer membrane adhesin), on acapsulate Opc+ bacteria of serogroup A strain C751 (Neisseria meningitidis serogroup A strain C751) (UniProt Q7DDI3)
[2] = molecular target: Neisseria meningitidis Opc protein, on capsulate Opc+ bacteria of serogroup B strain MC58 (Neisseria meningitidis serogroup B strain MC58)
[3] = molecular target: Neisseria meningitidis Opc protein (outer membrane adhesin), on acapsulate Opc+ bacteria of serogroup A strain C751 (Neisseria meningitidis serogroup A strain C751) (UniProt Q7DDI3); test: depletion from serum by sequential adsorption with whole bacteria, immuno-dot blot of the serum; a serum sample adsorbed sequentially with three fresh live bacterial suspensions, one hour each; remaining activated Vn (mAb 8E6), total Vn and Fn (polyclonal antibodies) by immuno-dot blot and densitometry
[4] = molecular target: Neisseria meningitidis Opc protein, on capsulate Opc+ bacteria of serogroup B strain MC58 (Neisseria meningitidis serogroup B strain MC58); test: as above

Sequence of fibronectin (human), of normal human serum and purified plasma fibronectin, P02751 32-2477 (natural protein) (P02751 32-2477): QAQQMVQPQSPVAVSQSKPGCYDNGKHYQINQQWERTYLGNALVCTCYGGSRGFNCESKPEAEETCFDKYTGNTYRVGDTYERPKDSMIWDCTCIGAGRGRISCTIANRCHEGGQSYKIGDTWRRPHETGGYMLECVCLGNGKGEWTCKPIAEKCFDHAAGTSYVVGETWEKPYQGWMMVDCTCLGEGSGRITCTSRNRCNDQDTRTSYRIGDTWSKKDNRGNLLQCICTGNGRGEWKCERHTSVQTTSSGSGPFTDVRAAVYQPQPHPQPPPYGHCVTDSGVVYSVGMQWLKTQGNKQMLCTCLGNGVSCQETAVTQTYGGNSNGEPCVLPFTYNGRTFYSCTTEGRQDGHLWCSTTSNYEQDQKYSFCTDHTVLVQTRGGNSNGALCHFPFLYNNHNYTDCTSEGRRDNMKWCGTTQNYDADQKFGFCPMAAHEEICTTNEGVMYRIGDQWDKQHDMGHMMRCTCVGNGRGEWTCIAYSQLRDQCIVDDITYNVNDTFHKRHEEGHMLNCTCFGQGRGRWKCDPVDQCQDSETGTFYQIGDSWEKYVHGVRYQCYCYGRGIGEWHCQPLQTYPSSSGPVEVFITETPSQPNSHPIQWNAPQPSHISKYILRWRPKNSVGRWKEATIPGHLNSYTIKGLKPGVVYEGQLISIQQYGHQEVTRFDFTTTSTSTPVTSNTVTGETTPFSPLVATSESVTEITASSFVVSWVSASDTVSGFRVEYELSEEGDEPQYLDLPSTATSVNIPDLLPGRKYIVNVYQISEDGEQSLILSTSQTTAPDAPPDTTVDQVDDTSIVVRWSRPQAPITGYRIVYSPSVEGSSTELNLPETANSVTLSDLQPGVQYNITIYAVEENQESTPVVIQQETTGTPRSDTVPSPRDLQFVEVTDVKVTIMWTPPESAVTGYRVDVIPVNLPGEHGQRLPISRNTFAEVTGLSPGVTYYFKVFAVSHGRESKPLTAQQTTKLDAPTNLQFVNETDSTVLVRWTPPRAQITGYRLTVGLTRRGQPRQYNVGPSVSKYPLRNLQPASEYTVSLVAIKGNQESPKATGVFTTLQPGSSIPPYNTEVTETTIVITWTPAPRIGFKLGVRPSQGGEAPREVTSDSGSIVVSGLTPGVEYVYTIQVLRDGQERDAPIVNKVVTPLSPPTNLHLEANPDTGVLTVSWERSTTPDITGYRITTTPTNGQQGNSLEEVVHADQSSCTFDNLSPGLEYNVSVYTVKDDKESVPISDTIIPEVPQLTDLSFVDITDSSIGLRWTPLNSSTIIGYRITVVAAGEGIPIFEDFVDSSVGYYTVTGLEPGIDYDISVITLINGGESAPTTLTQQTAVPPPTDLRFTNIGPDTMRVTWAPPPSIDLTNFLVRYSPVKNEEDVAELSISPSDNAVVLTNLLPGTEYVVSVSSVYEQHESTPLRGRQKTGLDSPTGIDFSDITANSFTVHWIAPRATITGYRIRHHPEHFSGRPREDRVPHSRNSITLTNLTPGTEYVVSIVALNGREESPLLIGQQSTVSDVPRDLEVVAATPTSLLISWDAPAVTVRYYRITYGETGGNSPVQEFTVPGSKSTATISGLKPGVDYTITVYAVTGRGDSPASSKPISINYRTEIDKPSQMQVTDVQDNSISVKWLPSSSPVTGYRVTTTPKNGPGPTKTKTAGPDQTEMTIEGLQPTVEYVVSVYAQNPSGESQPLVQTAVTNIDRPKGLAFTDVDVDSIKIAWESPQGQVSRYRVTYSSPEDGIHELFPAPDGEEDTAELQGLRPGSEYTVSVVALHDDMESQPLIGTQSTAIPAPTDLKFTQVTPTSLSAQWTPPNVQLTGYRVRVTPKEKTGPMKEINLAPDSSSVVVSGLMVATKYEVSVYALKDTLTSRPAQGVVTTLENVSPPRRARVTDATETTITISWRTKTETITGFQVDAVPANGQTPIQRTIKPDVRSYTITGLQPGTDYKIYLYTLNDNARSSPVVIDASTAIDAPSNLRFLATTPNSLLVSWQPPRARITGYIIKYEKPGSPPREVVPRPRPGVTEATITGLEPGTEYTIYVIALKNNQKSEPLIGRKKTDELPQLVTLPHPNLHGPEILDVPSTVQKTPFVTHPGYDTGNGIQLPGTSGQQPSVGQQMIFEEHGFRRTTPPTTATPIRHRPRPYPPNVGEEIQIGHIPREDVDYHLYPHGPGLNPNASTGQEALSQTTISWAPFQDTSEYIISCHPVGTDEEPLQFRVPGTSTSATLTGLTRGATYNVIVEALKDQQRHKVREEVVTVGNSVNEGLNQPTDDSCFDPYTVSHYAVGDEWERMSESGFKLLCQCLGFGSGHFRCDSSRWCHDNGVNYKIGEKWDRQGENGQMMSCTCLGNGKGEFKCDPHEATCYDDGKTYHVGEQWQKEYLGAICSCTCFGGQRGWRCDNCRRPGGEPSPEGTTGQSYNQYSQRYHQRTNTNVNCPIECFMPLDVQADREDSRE

Q: Which inhibition by VA-21S of VA-26S-mediated adhesion of C751 Opc+ Nm to HBMECs (data not illustrated) [1] does the source give for “VA-21S, synthetic peptide of vitronectin residues 48-68 sulphated at residues 56 and 59” here?
A: 80%

Q: What about the inhibition by VA-21S of VA-26S-mediated invasion of HBMECs by C751 Opc+ Nm (data not illustrated) [1] of the same substance?
A: 100%

Q: And the inhibition by VA-21S of VA-26S-mediated adhesion of piliated capsulate Opc+ MC58 to HBMECs (data not illustrated) [2]?
A: 40%

Q: What about the inhibition by VA-21S of VA-26S-mediated invasion of HBMECs by piliated capsulate Opc+ MC58 (data not illustrated) [2] of the same substance?
A: > 80%

Q: Which results are given for “activated vitronectin (human), from normal human serum, purified by heparin-sepharose chromatography (natural protein)”?
A: percent depleted from serum after two adsorptions [3]: > 75%; percent depleted from serum after three adsorptions [4]: 81%

Q: Which percent depleted from serum after three adsorptions [3] does the source give for “fibronectin (human), of normal human serum and purified plasma fibronectin, P02751 32-2477 (natural protein)” here?
A: 20%

Q: With “vitronectin of normal human serum (total Vn, detected with polyclonal anti-Vn) (natural protein)” as the substance, how does the percent depleted from serum after three adsorptions [3] read?
A: 25%
